Entries after “also recorded” stand apart in the source; their conditions may differ.
Columns and labels:
ER stressed SCG neurons = assay: Survival of tunicamycin ER-stressed SCG neurons microinjected with recombinant protein; type: cell-based, mouse; conditions: recombinant protein microinjected into the cytoplasm; tunicamycin 2 μM; counted after 3 days
Description: Non-neuronal cells were removed by extensive preplating. Almost pure neurons were cultured in polyornithine/laminin (Sigma)-coated 35-mm plastic dishes in the small-size standard microislands in the Neurobasal medium and B27 supplement (Invitrogen/Gibco) in the presence of 30 ng/ml mouse nerve growth factor (NGF) (Promega) for 5-6 days. NGF was deprived by extensive washing and addition of the function-blocking anti-NGF antibodies (Roche). The neurons were pressure-microinjected with special neuronal microinjection equipment (Hellman et al., 2011; Hamner et al., 2001; Lindholm et al., 2002; Sun et al., 2001; Yu et al., 2003)(Sun et al., 2001; Sun et al., 2003). For the survival assay, all neurons on the microislands were counted in the beginning (initial number) and the end (three days) of the experiment and expressed as % of initial.
Microinjection of the sympathetic neurons was performed as described earlier (Yu, L. Y., Jokitalo, E., Sun, Y. F., Mehlen, P., Lindholm, D., Saarma, M., and Arumäe, U. (2003) J. Cell Biol. 163, 987-997). […] Next day tunicamycin (2 μM) was added, and after 3 days the living fluorescent neurons were counted. Living fluorescent (EGFP-expressing or Dextran Texas Red-containing) neurons were “blindly” counted three days later and expressed as percent of initial living fluorescent neurons counted 2-3 hours after microinjection. […]

rat 6-OHDA model of PD = assay: Neurorestoration study in 6-OHDA model of PD, amphetamine-induced rotations; type: in vivo; conditions: intrastriatal injection 2 weeks after 6-OHDA lesioning; 2, 4, 6 and 8 weeks post-lesion
Description: In neurorestoration model of PD, rats were lesioned with 6-OHDA as described before (Voutilainen et al., 2009; Voutilainen et al., 2011, Penttinen et al., 2016). Briefly, rats received under isoflurane anesthesia unilateral stereotaxic injections of 3×2 μg 6-OHDA (in 10 degree angle) into the left striatum (coordinates relative to bregma and dura A/P+1.6; L/M −2.8; D/V −6, A/P 0.0: L/M −4.1; D/V −5.5 and A/P −1.2; L/M: −4.5; D/V −5.5). Two weeks later, rats were divided to groups based on their amphetamine-induced rotation results (size of the lesion). […] In the reference experiment after division of rats into groups, osmotic minipumps were inserted subcutaneously and cannula was placed into lesioned striatum. The minipump delivered MANF4 (i.e. MANF peptide CKGC, see WO2013034805), GDNF or vehicle solution into striatum for two weeks after which the minipump and cannula were removed. […] The number of amphetamine-induced (2.5 mg/kg, i.p.) full (360°) ipsi- and contralateral turns were recorded for 120 mins after a 30 min habituation period. The results are expressed as net ipsilateral turns to the lesion side Exclusion criterion was Mean (net rotations)±2×STDEV.

[1] = test system: Huntington's disease rat model (quinolinic acid); assay: Quinolinic acid Huntington's disease rat model, rotarod and grip strength; type: in vivo; conditions: single intrastriatal injection 2 weeks after QA, vs QA+PBS
Text: Adult Wistar rats received a single, unilateral intrastriatal injection of quinolinic acid (QA) 225 nmol into coordinates: A/P+0.7; L/M+2.8; D/V −6.0. Quinolinic acid is a toxin that induces striatal neuron death by an excitotoxic process. […] Rats were randomized to groups before the treatments started. Rotarod and grip strength tests were done weekly.

B1: C-CDNF: Human C-CDNF, SEQ ID NO: 4: C-terminal domain of mature CDNF, amino acid 101 to 161; recombinant, Histidine tag at C-terminus (protein, listed as Homo sapiens)
chain: KYEKTLDLASVDLRKMRVAELKQILHSWGEECRACAEKTDYVNLIQELAPKYAATHPKTEL
- living fluorescent neurons, percentage of initial neurons (ER stressed SCG neurons): rescue ER stressed SCG neurons
- cumulative amphetamine-induced rotations (rat 6-OHDA model of PD): significantly reduces the cumulative amount of amphetamine-induced rotations
- rotarod latency to fall (motor behavior) ([1]; equimolar to CDNF 10 micrograms): improved motor behavior statistically significantly; also recorded: improved motor performance in both rotarod and grip strength tests
- grip strength (left paw) ([1]; 3 and 5 week time points): significantly improved performance at 3 and 5 week time points; also recorded: improved motor performance in both rotarod and grip strength tests

Reference: patent publication US20260159561A1 (MyNeuroCure Oy, priority 2017, published 2026)
